Measurements: patent US20140234872A1 (University of California, published 2014)
Each block holds one binder with its values, some of them ahead of it.

What was measured:
[1] = molecular target: T1, GST (alone) (UniProt P08515 1-218 = GST); experiment: GST pulldown, GIV-CT pAb blot (FIG. 20B)
T1 construct: Negative control on glutathione beads
Protocol: Equal aliquots (˜3 μg) of His-GIV-CT were incubated with ˜30 ug of GST and ˜25 μg GST-SHP-1 immobilized on glutathione beads. Bound His-GIV-CT was analyzed by immunoblotting (IB) with GIV-CT pAb. Relative amounts of bead-bound GST and GST-SHP-1 were confirmed by ponceau S staining. (B) His-GIV-CT preferentially binds the C-terminal SH2 domain of SHP-1. Equal aliquots (˜3 μg) of His-GIV-CT were incubated with ˜30 μg GST, wild-type GST-SHP-1, GST-SHP-1 lacking both SH2 domains (ΔN+CSH2), and GST-SHP-1 lacking only the N-terminal SH2 domain (ΔNSH2). Bound His-GIV-CT was analyzed by immunoblotting (IB) with GIV-CT pAb. His-GIV-CT specifically bound wild-type GST-SHP-1, but not GST alone (lanes 3, 4); binding was reduced in the absence of both SH2 domains (lane 5), but restored when the C-terminal SH2 domain was present (lane 6).
To determine if the GIV-SHP-1 interaction observed in vivo is direct, in vitro binding assays were carried out using recombinant His-GIV-CT and GST or GST-SHP-1 immobilized on glutathione beads. […] Because SHP-1 is recruited to its substrates by one or both of its in-tandem SH2 domains (30), whether the SH2 domains, and if so, which one (NSH2 or CSH2) is responsible for mediating the direct interaction of SHP-1 with GIV's C-terminus was assessed. […]

[2] = molecular target: His-Gαi3; experiment: cell-based or functional assay
[3] = molecular target: T1, GST (alone); experiment: GST pulldown with a panel of GST-tagged SH2 adaptors (FIG. 4A)
Protocol: FIG. 4 illustrates that GIV interacts with p85α via its phosphorylated C-terminus. […] Mock-treated GIV-CT and in vitro EGFR-phosphorylated pY GIV-CT were incubated with ˜35 μg of the indicated GST-SH2 adaptors or GST immobilized on glutathione beads. Bound His-GIV-CT was analyzed by immunoblotting (IB) with anti-His mAb. pY GIV-CT, but not GIV-CT specifically bound the C-terminal SH2 domain of p85α (lane 3), and weakly to the N-terminal SH2 domain of p85α (lane 2). […] Mock-treated GIV-CT and in vitro EGFR or Src-phosphorylated (pY GIV-CT) His-GIV-CT were incubated with ˜35 μg of GST-p85α-CSH2 adaptor or GST immobilized on glutathione beads. Bound His-GIV CT was analyzed by immunoblotting (IB) with anti-His mAb. GIV CT bound p85α-CSH2 exclusively after phosphorylation by EGFR and Src-kinases (lanes 3, 4), but not when sham-treated (lane 2). […] HeLa cells were starved (0 min), and subsequently stimulated with EGF for indicated time periods prior to lysis. Equal aliquots of lysates (bottom) were incubated with anti-GIV (CT Ab; lanes 1-3) or a mix (M) of them was incubated with pre-immune IgG Immune complexes (top) were analyzed for the presence of endogenous GIV, phosphotyrosine (pTyr) and p85α by immunoblotting (IB). […] Equal aliquots of lysates (bottom) were treated with anti-GIVCT Ab or preimmune IgG Immunoprecipitated complexes (top) were analyzed for GIV and p85α by immunoblotting (IB). […]

[4] = molecular target: endogenous SHP-1 of HEK cells (UniProt P29350 1-595); experiment: anti-SHP-1 co-immunoprecipitation from HEK lysates (FIG. 26)
Chain of endogenous SHP-1 of HEK cells (P29350 whole entry): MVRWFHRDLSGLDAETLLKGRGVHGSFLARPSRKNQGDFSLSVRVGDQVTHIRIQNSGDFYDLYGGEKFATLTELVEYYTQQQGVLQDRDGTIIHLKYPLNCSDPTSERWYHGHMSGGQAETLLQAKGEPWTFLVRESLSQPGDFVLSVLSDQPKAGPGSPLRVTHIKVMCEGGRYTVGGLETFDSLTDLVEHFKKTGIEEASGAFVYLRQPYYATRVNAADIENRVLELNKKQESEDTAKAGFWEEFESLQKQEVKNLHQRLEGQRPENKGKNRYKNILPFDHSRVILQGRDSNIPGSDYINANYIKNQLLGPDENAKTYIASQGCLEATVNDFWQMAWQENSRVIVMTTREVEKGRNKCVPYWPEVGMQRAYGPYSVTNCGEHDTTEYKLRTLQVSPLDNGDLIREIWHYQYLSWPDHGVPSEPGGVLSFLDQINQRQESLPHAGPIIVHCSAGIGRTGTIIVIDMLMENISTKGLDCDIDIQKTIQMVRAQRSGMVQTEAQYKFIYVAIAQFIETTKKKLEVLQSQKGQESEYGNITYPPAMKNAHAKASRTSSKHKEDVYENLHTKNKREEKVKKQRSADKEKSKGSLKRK
Protocol: Equal aliquots of HEK lysates (bottom) were incubated with either rabbit preimmune (lane 1) or anti-SHP-1 (lane 2) IgGs, and protein A agarose beads. Lysates and immune complexes (top) were analyzed for GIV, SHP-1, and Gαi3 by immunoblotting (IB). SHP-1 was immunoprecipitated efficiently and specifically by anti-SHP-1 (lane 2), but not control (lane 1) IgG. GIV, but not Gαi3 was detected in SHP-1-bound protein complexes (lane 2).

T1 sequence (P08515 whole entry): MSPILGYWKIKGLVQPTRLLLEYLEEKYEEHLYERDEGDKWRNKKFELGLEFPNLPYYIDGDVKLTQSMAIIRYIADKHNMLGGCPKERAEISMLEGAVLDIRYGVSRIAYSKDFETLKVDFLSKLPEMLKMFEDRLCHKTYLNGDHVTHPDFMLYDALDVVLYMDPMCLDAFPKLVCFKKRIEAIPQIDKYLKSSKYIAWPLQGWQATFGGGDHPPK

steady-state GTPase activity of His-Gαi3 [2]: ~1.7 fold over the basal activity
B1: His-GIV-CT (aa 1660-1870), wild-type, not phosphorylated (mock- or sham-treated) (other)
chain: SETLESRHHKIKTGSPGSEVVTLQQFLEESNKLTSVQIKSSSQENLLDEVMKSLSVSSDFLGKDKPVSCGLARSVSGKTPGDFYDRRTTKPEFLRPGPRKTEDTYFISSAGKPTPGTQGKIKLVKESSLSRQSKDSNPYATLPRASSVISTAEGTTRRTSIHDFLTKDSRLPISVDSPPAAADSNTTAASNVDKVQESRNSKSRSREQQSS
notes: Expressed in E. coli; also called mock-WT; mock-treated GIV-CT; not shown: hexahistidine (6xHis) tag of pET28b
binding result [1]: no binding (tested: ˜3 µg His-GIV-CT, ˜30 µg GST)

binding result [3]: no binding
steady-state GTPase activity of His-Gαi3 [2]: ~1.7 fold over the basal activity
B2: His-GIV-CT (aa 1660-1870), wild-type, phosphorylated in vitro by recombinant EGFR kinase (other)
chain: B1 chain
modifications: phosphotyrosine at Y1764 and Y1798 (sites found by mass spectrometry after EGFR kinase; EGFR prefers Y1764)
notes: also called pY GIV-CT; pY GIV-CT (EGFR); not shown: hexahistidine (6xHis) tag of pET28b

binding result [4]: no binding
B3: endogenous Gαi3 of HEK cells (other, UniProt P08754 2-354, looked up)
chain: GCTLSAEDKAAVERSKMIDRNLREDGEKAAKEVKLLLLGAGESGKSTIVKQMKIIHEDGYSEDECKQYKVVVYSNTIQSIIAIIRAMGRLKIDFGEAARADDARQLFVLAGSAEEGVMTPELAGVIKRLWRDGGVQACFSRSREYQLNDSASYYLNDLDRISQSNYIPTQQDVLRTRVKTTGIVETHFTFKDLYFKMFDVGGQRSERKKWIHCFEGVTAIIFCVALSDYDLVLAEDEEMNRMHESMKLFDSICNNKWFTETSIILFLNKKDLFEEKIKRSPLTICYPEYTGSNTYEEAAAYIQCQFEDLNRRKDTKEIYTHFTCATDTKNVQFVFDAVTDVIIKNNLKECGLY
